Biological target: human STIM1 (human, UniProt Q13586 23-685, limits assumed)
Test: co-immunoprecipitation from CHO cell lysates, Western blot; repeated with cross-linker DSP and different detergents
Experimental: Next, the interaction of P311 with SOCE molecular machinery was examined experimentally. The interaction of P311 with known components of SOCE, such as STIM1 and Orai1, was studied. A GFP-myc-Orai1 plasmid and the mammalian expression plasmid containing the human STIM1 cDNA (OriGene, Inc.) were used. The plasmids were transfected into CHO cells and 36 hours after transfection, total cell lysates from CHO cells transiently expressing GFP-myc-Orai1 were incubated with either a polyclonal antibody against P311, or an anti-myc monoclonal antibody, with normal rabbit IgG serving as the control. […] Similar results were obtained when co-IP assays were repeated using reversible cross-linker DSP and different detergents in cell lysis buffer, including Triton X-100, NP-40 and CHAPS.

Chain of human STIM1 (Q13586 23-685 limits assumed): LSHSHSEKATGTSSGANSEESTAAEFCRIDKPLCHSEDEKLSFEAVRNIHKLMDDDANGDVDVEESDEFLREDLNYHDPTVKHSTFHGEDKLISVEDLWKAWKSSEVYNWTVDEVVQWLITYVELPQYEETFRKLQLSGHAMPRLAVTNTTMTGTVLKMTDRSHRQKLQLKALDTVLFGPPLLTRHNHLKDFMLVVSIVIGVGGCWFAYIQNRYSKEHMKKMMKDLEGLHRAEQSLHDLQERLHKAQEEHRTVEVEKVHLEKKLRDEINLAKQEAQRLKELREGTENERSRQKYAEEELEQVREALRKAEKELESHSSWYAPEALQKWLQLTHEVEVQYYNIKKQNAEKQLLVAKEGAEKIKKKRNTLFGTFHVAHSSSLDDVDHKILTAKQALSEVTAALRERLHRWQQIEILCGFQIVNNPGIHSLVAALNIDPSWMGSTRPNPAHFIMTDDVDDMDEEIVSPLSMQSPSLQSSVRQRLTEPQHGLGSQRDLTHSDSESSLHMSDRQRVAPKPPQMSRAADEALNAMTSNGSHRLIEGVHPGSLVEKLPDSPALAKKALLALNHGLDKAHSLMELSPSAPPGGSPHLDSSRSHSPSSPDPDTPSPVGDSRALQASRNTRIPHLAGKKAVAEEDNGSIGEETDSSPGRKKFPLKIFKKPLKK

binding result: no binding
B1: P311 (endogenous P311 present in CHO cells) (other)
chain: MVYYPGLLVWVSQEPFLYKEMEGSLTKGRLPVPKEVNRKKLEEARAASMTPPGSHELCFPNISYL
